Laboratory results: patent US6906179B2, “Antibody to SNIP1” (The General Hospital Corporation, priority 1999, dated 2005)
Where two headings read alike, the source gives them in different places.

What was measured:
nigral dopamine neurons = settings: cited from earlier work
[1] = system: HsN3 and Smad1 localization; assay: Localization of HsN3 and Smad1 in transfected COS cells, confocal microscopy; assay type: cell-based
Text: Since the activation of BMP type I receptors, either by BMP ligands in the presence of the type II receptor, or by the presence of a point mutation (Q233D), can induce the translocation of Smad1 from the cytoplasm to the nucleus (Hoodless et al., 1996, Wang et al., unpublished data), we examined whether the intracellular localization of the Smad1 interactor HsN3 is also regulated by the constitutively activated BMP type I receptor ALK3Q233D. The localization of endogenous HsN3 in COS cells in the presence or absence of activated Smad1 was studied by immunocytochemistry and confocal microscopy (FIG. 28). In untransfected COS cells, weak signals from endogenous HsN3 were detected in both the cytoplasm and the nucleus, with a monoclonal anti-HsN3 antibody and a FITC-conjugated anti-mouse secondary antibody (FIG. 28A). […]
To directly study how BMPs regulate the localization of HsN3, COS cells were transfected with the wild type BMP type I receptor ALK3 the BMP type II receptor and Smad1. […] In cells not treated with BMP7, the endogenous HsN3 produced a weak signal in both the cytoplasm and the nucleus that was detected with a FITC conjugated secondary antibody (FIG. 28D1), while the expressed Smad1 also produced a signal located throughout the transfected cells that was detected by Rodamine conjugated secondary antibody (FIG. 28D2). […]

SNIP-1 protein level = assay: ALK3Q233D-induced degradation of SNIP-1 in transfected COS cells, Western blot; assay type: cell-based; settings: COS cells transfected with Smad1, DPC4, antizyme and BMP type II and type I (ALK3) receptors, treated with BMP7 (not shown)
Text: The novel Smad1 interactor is a nuclear proteip (termed as Smad1 Nuclear Interactor Protein 1, SNIP-1, SEQ ID No. 3), with a carboxyterminal domain that is highly homologous to the aminoterminus of the nuclear inhibitor of protein phosphatase 1 (NIPP-1) (Wang & Lechleider, unpublished) (FIG. 31A & C). NIPP-1 (VanEynde et al., 1995) is known to be rapidly processed into smaller heat-stable intermediates, a process that may be mediated by proteasome (see Discussion in Jagiello et al., 1995). SNIP-1 is a strong interactor of Smad1, that also binds to both antizyme and HsN3 in the yeast two-hybrid assays (FIG. 311B).
Forty-eight hours after transfection, COS cells were lysed in an equal volume of lysis buffer (300 ul/plate), and the total protein concentration of each sample was measured. No major difference in protein concentration was detected among the lysates. The protein level of SNIP-1 in 100 ug of total protein lysate was determined by Western blot using anti-T7 monoclonal antibody. […] Such a decrease is dependent upon the coexpression of Smad1, DPC4 and antizyme, since replacing each of these three proteins with an unrelated protein (β galactosidase) abolishes such a decrease in ALK3Q233D transfected cells (FIG. 31D, top panel, lanes 9-14). […]

rat sympathetic neurons = assay: OP-1 induced dendritic growth of rat sympathetic neurons; assay type: cell-based; settings: sympathetic neurons
Description: If Smad1 and DPC4 signal through proteasome mediated proteolysis, proteasome inhibitors should block the signaling of BMPs. We thus directly tested the effects of the proteasome inhibitors on the signaling pathways of BMPs that signal via Smad1 activation. […] The EC50 for the inhibitory activity of lactacystin was ˜100 nM and maximal effects were obtained with 4-6 hour pretreatments (not shown).
To determine the time course of sensitivity to lactacystin with respect to the signaling pathway of OP-1, lactacystin was added to the media at various time points after the addition of OP-1 (FIG. 32, bottom panel B).

B1: GDNF: glial cell line-derived neurotrophic factor, member of the TGF-β superfamily (protein, UniProt P39905 78-211, looked up)
Glial cell line-derived …: SPDKQMAVLPRRERNRQAAAANPENSRGKGRRGQRGKNRGCVLTAIHLNVTDLGLGYETKEELIFRYCSGSCDAAETTYDKILKNLSRNRRLVSDKVGQACCRPIAFDDDLSFLDDNLVYHILRKHSAKRCGCI
nigral cell death and atrophy (nigral dopamine neurons; intracerebral administration for 4 weeks following lesioning): completely prevented nigral cell death and atrophy
nigral cell death and atrophy (nigral dopamine neurons; single 10 μg injection at 1 week post-lesion): partial protective effect

B2: TGF-β3: TGF-β isoform (protein, UniProt P10600 301-412, looked up)
Transforming growth factor …: ALDTNYCFRNLEENCCVRPLYIDFRQDLGWKWVHEPKGYYANFCSGPCPYLRSADTTHSTVLGLYNTLNPEASASPCCVPQDLEPLTILYYVGRTPKVEQLSNMVVKSCKCS
nigral cell death or atrophy (nigral dopamine neurons; similar dosing strategies): no effect

B3: BMP7: OP-1 (BMP7), bone morphogenetic protein, TGF-β family ligand (protein, UniProt P18075 293-431, looked up)
Bone morphogenetic protein 7: STGSKQRSQNRSKTPKNQEALRMANVAENSSSDQRQACKKHELYVSFRDLGWQDWIIAPEGYAAYYCEGECAFPLNSYMNATNHAIVQTLVHFINPETVPKPCCAPTQLNAISVLYFDDSSNVILKKYRNMVVRACGCH
HsN3 signal ([1]; 30 mins after BMP7 treatment (20 ng/ml)): only a nuclear HsN3 signal of increased intensity was detected
endogenous HsN3 and overexpressed Smad1 localization ([1]; 60 mins after BMP7 treatment (20 ng/ml)): accumulated in the nucleus
degradation of SNIP-1 (SNIP-1 protein level): degradation of SNIP-1 has also been observed
Smad1 localization upon OP-1 treatment (rat sympathetic neurons): rapid nuclear translocation of Smad1
